Assay results as given in US12072338B2, “Pharmaceutical peptides for the treatment of inflammatory diseases” (PROTAGONISTS LTD., priority 2007, dated 2024).

Assays:
GRO-β = target: T1, GRO-β (Homo sapiens, UniProt P19875); test: Micro-array analysis of chemokine binding peptides: GRO-β
T1 construct: purchased 300-39
T1 sequence (P19875 35-107): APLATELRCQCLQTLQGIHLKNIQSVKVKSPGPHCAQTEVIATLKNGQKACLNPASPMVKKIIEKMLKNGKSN
Description: (§1) (1) Printing: Chemokine (CK) solution (in water) was serially diluted with Print Reagent (GenTel BioSurfaces USA) to final concentrations of 50 μg and 25 μg/ml. BSA/BSA-Biotin control solutions (in water) were diluted with Print Reagent to 100 μg/ml. Amplified stock of M13 phage control (M13KEgIII Cloning Vector, New England Biolabs, Cat.No.E8101S) was stored in Tris Buffered Saline (TBS; pH7.5, 4° C.) and diluted with Print Reagent to the working titre (10^8 pfu/μl). An automated spotting robot (16 pin print tool, 0.4 mm head; BioRobotics, UK) was used to print the CK/BSA control/M13 control, 5 repeats per sample (CK 25 μg/ml and 50 μg/ml; BSA 100 μg/ml; M13 20 μl), on PATH Protein Microarray Slides (GenTel, Prod.No. 2-1005/-1025) at […], and 50-70% relative humidity. Printed micro-array slides were stored at Room Temperature (RT) or 4° C. for at least 24 h before use.
(§2) (2) Blocking: Block Buffer (500 μl/partition; PATHblock, GenTel, Prod.No. 2-1014) was applied to the slide for 1 hour at room temp (RT). After removal of Block Buffer, the slide was air dried for 25 minutes;
(§3) (3) Phage Presented Peptide Binding: Amplified recombinant phage stock was stored in TBS and diluted with Wash Buffer to working titer (10^7 pfu/μl). Recombinant phage suspension (300 μl) was applied per partition and incubated at RT for 1 hour with gentle agitation.
(§4) (4) First Washing: The slides were washed twice with Wash Buffer 300 μl/partition).
(§5) (5) Primary Antibody (Ab) Labeling: The slides were incubated with the Primary Ab (1 mg/ml diluted ×2500 (Wash Reagent), 300 μl; Mouse Anti-M13 monoclonal Ab; Amersham Biosciences, UK; Product Code 27-9420-01) for 45 minutes at RT.
(§6) (6) Second Washing: The slides were washed twice with Wash Buffer (300 μl/partition).
(§7) (7) Secondary Ab Labeling: The slides were incubated with Secondary Ab (1.5 mg/ml diluted ×5000 (Wash Reagent), 300 μl; Cy3-conjugated AffiniPure Goat Anti-Mouse IgG; Jackson ImmunoReserch Labs, USA; Product Code 115-165-062).
(§8) (8) Third Washing: The slides were washed twice with Wash Buffer (300 μl/partition).
(§9) (9) Rinse: the slides were rinsed twice with Rinse Buffer (PATHrinse, GenTel, Prod.No. 2-1018) then dried well.
(§10) (10) Scanning: The peptide-bound, labeled slide was scanned (Laser Intensity 80%, Gain 80%, Resolution 10 μm) with a ScanArray Life Scanner (Packard BioChip Technologies, USA).
(§11) (11) Analysis: Quantitative analysis of micro-array was performed by the SpotReader program of Niles Scientific (USA) and presented as Relative Fluorescence (RF) as a function of CK concentration. Micro-array readout (Cy3 fluorescence) was quantified to determine the relative binding affinities of a CBP for the CKs and by inference, the specificity of the CBP for binding to a CK.

IL-8 = test: Micro-array analysis of chemokine binding peptides: IL-8
Chain of IL-8 (P10145 28-99 limits assumed): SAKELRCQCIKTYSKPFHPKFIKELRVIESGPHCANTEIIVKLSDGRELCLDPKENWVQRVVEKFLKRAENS
Description: as §1, §2, §3, §4, §5, §6, §7, §8, §9, §10, §11

Mig = target: T2, Mig (Homo sapiens, UniProt Q07325); test: Micro-array analysis of chemokine binding peptides: Mig
T2 construct: purchased 300-26
T2 sequence (Q07325 23-125): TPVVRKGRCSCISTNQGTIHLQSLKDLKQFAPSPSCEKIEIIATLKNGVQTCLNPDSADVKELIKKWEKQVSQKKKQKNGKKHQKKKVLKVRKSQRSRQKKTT
Description: as §1, §2, §3, §4, §5, §6, §7, §8, §9, §10, §11

IP-10 = target: T3, IP-10 (Homo sapiens, UniProt P02778); test: Micro-array analysis of chemokine binding peptides: IP-10
T3 construct: purchased 300-12
T3 sequence (P02778 22-98): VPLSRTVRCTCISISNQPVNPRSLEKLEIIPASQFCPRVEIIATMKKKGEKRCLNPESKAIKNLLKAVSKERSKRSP
Description: as §1, §2, §3, §4, §5, §6, §7, §8, §9, §10, §11

MCP-1 = target: T4, MCP-1 (Homo sapiens, UniProt P13500); test: Micro-array analysis of chemokine binding peptides: MCP-1; settings: limit = start of the upper 75% of that peptide's response range
T4 construct: purchased 300-04
T4 sequence (P13500 24-99): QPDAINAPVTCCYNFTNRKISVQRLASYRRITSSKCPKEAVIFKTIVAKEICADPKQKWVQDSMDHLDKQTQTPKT
Description: as §1, §2, §3, §4, §5, §6, §7, §8, §9, §10, §11

MCP-2 = target: T5, MCP-2 (Homo sapiens, UniProt P80075); test: Micro-array analysis of chemokine binding peptides: MCP-2; settings: limit = start of the upper 75% of that peptide's response range
T5 construct: purchased 300-15
T5 sequence (P80075 24-99): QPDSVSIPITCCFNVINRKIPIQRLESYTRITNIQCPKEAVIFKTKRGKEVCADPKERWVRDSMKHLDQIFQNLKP
Description: as §1, §2, §3, §4, §5, §6, §7, §8, §9, §10, §11

MCP-4 = target: T6, MCP-4 (Homo sapiens, UniProt Q99616); test: Micro-array analysis of chemokine binding peptides: MCP-4; settings: limit = start of the upper 75% of that peptide's response range
T6 construct: purchased 300-24
T6 sequence (Q99616 17-98): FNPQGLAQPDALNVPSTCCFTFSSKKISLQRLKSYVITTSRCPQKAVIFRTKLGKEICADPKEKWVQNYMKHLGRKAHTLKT
Description: as §1, §2, §3, §4, §5, §6, §7, §8, §9, §10, §11

RANTES = target: T7, RANTES (Homo sapiens, UniProt P13501); test: Micro-array analysis of chemokine binding peptides: RANTES
T7 construct: purchased 300-06
T7 sequence (P13501 24-91): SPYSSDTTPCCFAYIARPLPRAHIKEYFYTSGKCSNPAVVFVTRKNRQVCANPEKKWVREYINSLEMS
Description: as §1, §2, §3, §4, §5, §6, §7, §8, §9, §10, §11

Eotaxin = target: T8, Eotaxin (Homo sapiens, UniProt P51671); test: Micro-array analysis of chemokine binding peptides: Eotaxin
T8 construct: purchased 300-21
T8 sequence (P51671 24-97): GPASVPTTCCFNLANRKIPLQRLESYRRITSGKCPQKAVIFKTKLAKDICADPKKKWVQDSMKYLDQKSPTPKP
Description: as §1, §2, §3, §4, §5, §6, §7, §8, §9, §10, §11

Eotaxin 3 = target: T9, Eotaxin 3 (Homo sapiens, UniProt Q9Y258); test: Micro-array analysis of chemokine binding peptides: Eotaxin 3
T9 construct: purchased 300-48
T9 sequence (Q9Y258 24-94): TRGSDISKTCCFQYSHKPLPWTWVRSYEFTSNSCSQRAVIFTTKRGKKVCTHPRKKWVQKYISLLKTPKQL
Description: as §1, §2, §3, §4, §5, §6, §7, §8, §9, §10, §11

BCA-1 = target: T10, BCA-1 (Homo sapiens, UniProt O43927); test: Micro-array analysis of chemokine binding peptides: BCA-1
T10 construct: purchased 300-47
T10 sequence (O43927 23-109): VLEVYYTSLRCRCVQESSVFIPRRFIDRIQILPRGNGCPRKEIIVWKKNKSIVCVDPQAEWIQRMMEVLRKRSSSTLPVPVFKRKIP
Description: as §1, §2, §3, §4, §5, §6, §7, §8, §9, §10, §11

TECK = target: T11, TECK (Homo sapiens, UniProt O15444); test: Micro-array analysis of chemokine binding peptides: TECK
T11 construct: purchased 300-45
T11 sequence (O15444 24-150): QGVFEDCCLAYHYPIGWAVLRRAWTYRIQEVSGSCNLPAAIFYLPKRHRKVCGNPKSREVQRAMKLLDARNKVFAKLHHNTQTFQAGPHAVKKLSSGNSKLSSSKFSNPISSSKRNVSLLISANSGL
Description: as §1, §2, §3, §4, §5, §6, §7, §8, §9, §10, §11

Fractalkine = target: T12, Fractalkine (Homo sapiens, UniProt P78423); test: Micro-array analysis of chemokine binding peptides: Fractalkine
T12 construct: purchased 300-31
T12 sequence (P78423 25-100 limits assumed): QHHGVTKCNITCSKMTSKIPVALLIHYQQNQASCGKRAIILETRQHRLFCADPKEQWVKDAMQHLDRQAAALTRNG
Description: as §1, §2, §3, §4, §5, §6, §7, §8, §9, §10, §11

Lymphotactin = target: T13, Lymphotactin (Homo sapiens, UniProt P47992); test: Micro-array analysis of chemokine binding peptides: Lymphotactin
T13 construct: purchased 300-20
T13 sequence (P47992 22-114): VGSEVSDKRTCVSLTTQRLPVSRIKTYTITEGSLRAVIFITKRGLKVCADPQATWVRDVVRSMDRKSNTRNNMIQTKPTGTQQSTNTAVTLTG
Description: as §1, §2, §3, §4, §5, §6, §7, §8, §9, §10, §11

Exodus-2 = target: T14, Exodus-2 (Homo sapiens, UniProt O00585); test: Micro-array analysis of chemokine binding peptides: Exodus-2
T14 construct: purchased 300-35
T14 sequence (O00585 24-134): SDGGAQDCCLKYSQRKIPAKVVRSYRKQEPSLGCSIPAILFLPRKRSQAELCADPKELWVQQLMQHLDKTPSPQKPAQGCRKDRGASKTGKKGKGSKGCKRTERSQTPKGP
Description: as §1, §2, §3, §4, §5, §6, §7, §8, §9, §10, §11

[1] = limit = start of the upper 75% of that peptide's response range

In the case of WVFGHGMCK [Ph-p25], the “binding to GRO-β with relatively high affinity (Relative Fluorescence Units)” value (GRO-β; [1]) was > 15,000 RFU, the “binding to IL-8 with relatively high affinity (Relative Fluorescence Units)” value (IL-8; [1]) was > 15,000 RFU and the “binding to Mig with relatively high affinity (Relative Fluorescence Units)” value (Mig; [1]) was > 15,000 RFU. The “binding to IP-10 with relatively high affinity (Relative Fluorescence Units)” value (IP-10; [1]) was > 15,000 RFU, the “binding to MCP-1 with relatively high affinity (Relative Fluorescence Units)” value (MCP-1) was > 15,000 RFU and the “binding to MCP-2 with relatively high affinity (Relative Fluorescence Units)” value (MCP-2) was > 15,000 RFU. For the same substance, the “binding to MCP-4 with relatively high affinity (Relative Fluorescence Units)” value (MCP-4) was > 15,000 RFU, the “binding to RANTES, stated in words” value (RANTES) was “bound” and the “binding to Eotaxin, stated in words” value (Eotaxin) was “bound”. The “binding to Eotaxin 3, stated in words” value (Eotaxin 3) was “bound”, the “binding to BCA-1, stated in words” value (BCA-1) was “bound” and the “binding to TECK, stated in words” value (TECK) was “bound”. The “binding to Fractalkine, stated in words” value (Fractalkine) was “bound”, the “binding to Lymphotactin, stated in words” value (Lymphotactin) was “bound” and the “binding to Exodus-2, stated in words” value (Exodus-2) was “bound”.
In the case of “TKCOKE (TKCQKE; listed as Homo sapiens) [Ph-p20]”, the “binding to GRO-β, stated in words” value (GRO-β) was “bound”, the “binding to IL-8, stated in words” value (IL-8) was “bound” and the “binding to Mig, stated in words” value (Mig) was “bound”. For the same substance, the “binding to IP-10, stated in words” value (IP-10) was “bound”, the “binding to MCP-1 with relatively high affinity (Relative Fluorescence Units)” value (MCP-1) was > 15,000 RFU and the “binding to MCP-2 with relatively high affinity (Relative Fluorescence Units)” value (MCP-2) was > 15,000 RFU. The “binding to MCP-4 with relatively high affinity (Relative Fluorescence Units)” value (MCP-4) was > 15,000 RFU, the “binding to RANTES, stated in words” value (RANTES) was “bound” and the “binding to Eotaxin, stated in words” value (Eotaxin) was “bound”. The “binding to Eotaxin 3, stated in words” value (Eotaxin 3) was “bound”, the “binding to BCA-1, stated in words” value (BCA-1) was “bound” and the “binding to TECK, stated in words” value (TECK) was “bound”. For the same substance, the “binding to Fractalkine, stated in words” value (Fractalkine) was “bound”, the “binding to Lymphotactin, stated in words” value (Lymphotactin) was “bound” and the “binding to Exodus-2, stated in words” value (Exodus-2) was “bound”.
